Ends that are not written are not given here.
Columns and labels:
[1] = molecular target: radiolabeled GST/PKA/rasGAP SH3 (Schistosoma japonicum (Blood fluke)) [GST: P08515]; assay: peptide on AminoLink agarose, 32P-labelled fusion, counting
[2] = molecular target: ^32 P-labeled GST/PKA fusion protein (Schistosoma japonicum (Blood fluke)) [GST: P08515]; assay: peptide on AminoLink resin, precipitation of 32P-labelled control fusion, counting
[3] = molecular target: ^32 P-labeled GST/PKA/Src SH3 fusion protein (PKA site phosphorylated) (Schistosoma japonicum (Blood fluke)) [GST: P08515]; assay: peptide on AminoLink agarose, 32P-labelled fusion, counting

Row | Binder | percent of CPM bound to beads/CPM applied to beads [1] [%] | fold lower binding than GST/PKA/Src SH3 [2] [fold] | percent of CPM bound to beads/CPM applied to beads [3] [%]
1 | APPAATPPPPRLFRPPA (also: covalently coupled to AminoLink agarose) [peptide pL17-2] | 10 | – | –
2 | LARPLPVPPWRQ (not fully specified; printed as Leu Ala Arg Pro Leu Pro Val Pro Pro Trp Arg Gln) [fuse5B 4.3-12 (12 mer)] | – | 100 | –
3 | LALARPLPVPPWRQI (not fully specified) [fuse5B 4.3-15 (15 mer)] | – | 100 | –
4 | TPAPPPLPPRNV (also: covalently coupled to AminoLink agarose) [peptide pL35] | – | – | 90
5 | RPLPVPP (not fully specified) [fuse5B 4.3-7 (7 mer)] | – | 100 | –
6 | RPLPSPP (not fully specified) [peptide pL14-1-7-mer] | – | 100 | –
7 | QSRPLPSPPKFT (not fully specified) [peptide pL14-1] | – | 100 | 70
8 | KPPTPPPEPET (not fully specified) [pSV40, proline-rich peptide from SV40 T antigen] | – | – | < 1
